Measurements: patent publication US9486519B2, “Use of FLT3 ligand for enhancing immune responses in RNA immunization” (BioNTech AG, priority 2008, dated 2016)

Assays:
[1] = system: dendritic cells; assay: Dendritic cell subpopulations in spleen and lymph nodes by flow cytometry after i.p. Flt3-L; type: in vivo, C57Bl/6 mice; details: 10 μg i.p. d0, d3; day 10
Description: C57Bl/6 mice (n=3) were administered 10 μg Flt3L twice (d0, d3) intraperitoneally. On day 10 the inguinal lymph nodes were removed, the cells were stained with corresponding antibodies and the subpopulations of the dendritic cells were quantified by flow cytometry. The data shown represent the average cell count of the subpopulation *: p<0.05 and **: p<0.001 in the two-sided unpaired t-test.
To test the effects of application of human Flt3 ligand on the efficiency of RNA-based immunizations, the changes in the cellular composition of lymph nodes and spleen were first investigated in the mouse model. For this, various application schemes (2×, 3×, 5×10 μg) of recombinant Flt3-L were applied intraperitoneally and the cellularity was determined 10-12 days after the first injection. […] This increase could be shown for all relevant subpopulations of the dendritic cells in spleen and lymph nodes (FIG. 2).

[2] = system: cell populations of the murine lymph node; assay: Effects of different Flt3L on the cellular composition in lymph nodes; type: in vivo, C57BL/6 mice; details: 0.4 mol i.p. day 0; lymph nodes day 10
Text: On day 10 the lymph nodes of the mice were removed and characterized by flow cytometry. Dendritic cells (DCs (marker: CD11c^+/NK1.1^−)), CD4^+ helper T cells (marker: CD3^+/CD4^+/CD8^−/NK1.1^−), CD8^+ T cells (marker: CD3^+/CD8^+/CD4^−/NK1.1^−), CD19^+ B cells (marker: CD19^+/CD3^−/NK1.1^−).
In this experiment Flt3 ligand (Flt3-IgG4) was compared with commercially available Flt3 preparations with respect to the effect on different cell populations of the murine lymph node. A product recombinantly expressed in bacteria (Peprotech Flt3L; Peprotech, Hamburg, Germany) and a product expressed in human HEK293 cells (Humanzyme Flt3L, Humanzyme; Chicago Ill., U.S.A.) were used as commercially available Flt3 preparations. Human IgG4 (Sigma-Aldrich, Deisenhofen, Germany) served as control.
On day 10 both inguinal lymph nodes of the mice were removed, the cell count determined by means of a Neubauer chamber and the cell populations were characterized by flow cytometry.

[3] = system: RNA uptake in the lymph nodes; assay: Effect of Flt3-L on RNA uptake in lymph nodes, in-vivo bioluminescence; set-up: species or system C57BL/6 mice; details: 10 μg i.p. day 0 and 3; 20 μg luciferase-RNA intranodally day 10
Description: (f) Effect of Flt3-L on RNA uptake. C57BL/6 mice (n=8) were treated i.p. on day 0 and 3 with 10 μg, Flt3-L, or were not treated in the control group. On day 10 the mice were injected intranodally with 20 μg luciferase-RNA. 24 h later the luciferase signal was measured by in-vivo bioluminescence.
C57BL/6 mice (n=8) were treated i.p. on day 0 and 3 with 10 μg Flt3-L or were not treated in the control group. On day 10 the mice were injected intranodally with 20 μg luciferase-RNA. 24 h later the luciferase signal was measured by in-vivo bioluminescence. […] The bars give the mean value of all measured values for a group. The experiment is representative for 3 independent experiments. Statistics: Student's t-test.

B1: Flt3L-IgG4: recombinant human Flt3 ligand prepared as a fusion protein with IgG4, SEQ ID NO: 6, expressed in HEK293 cells (protein)
chain: MTVLAPAWSPTTYLLLLLLLSSGLSGTQDCSFQHSPISSDFAVKIRELSDYLLQDYPVTVASNLQDEELCGGLWRLVLAQRWMERLKTVAGSKMQGLLERVNTEIHFVTKCAFQPPPSCLRFVQTNISRLLQETSEQLVALKPWITRQNFSRCLELQCQPDSSTLPPPWSPRPLEATAPTAPQPPRSPPCPSCPAPEFLGGPSVFLFPPKPKDTLMISRTPEVTCVVVDVSQEDPEVQFNWYVDGVEVHNAKTKPREEQFNSTYRVVSVLTVLHQDWLNGKEYKCKVSNKGLPSSIEKTISKAKGQPREPQVYTLPPSQEEMTKNQVSLTCLVKGFYPSDIAVEWESNGQPENNYKTTPPVLDSDGSFFLYSRLTVDKSRWQEGNVFSCSVMHEALHNHYTQKSLSLSPGK
modifications: Fusionsprotein
[1]
  dendritic cells in spleen and lymph nodes: increase in dendritic cells
[2]
  expansion of dendritic cells: strong similarity
  expansion of the lymphocyte populations: tended to be strongest
[3]
  RNA uptake in the lymph nodes (in-vivo bioluminescence): does not have an inhibitory effect
